Experimental data reported in the DeepSol protein solubility set.

Experiment: soluble on expression in E. coli; label from the status in PepcDB or PDB records

Sequence	soluble on expression in E. coli
MNRRDFLQFGLRGIVVAGLGKGFYNTTSEQVEIVRTSVKIRNLPAALQGLKIGLLTDLHASFVVSSETIRSAGRLLMAEKPDLIVMTGDYISGSTRFLSGSVGQFKKEYLSKCIDALSGLKAPLGIYGVLGNHDFWSGPESVKAICEAFTRQMGMVWLRNSSVEIRRGRGSLHLLGVDDYWEPSCSLAAACKGVDTDGIKILLSHNPDINDEIFLLRERIDLVLSGHTHGGQVVVPFLGQPVMPSKFGQKYRAGLVRDGDRQTYISRGVGCLLAPIRLNCPPEATVLTLTLEHHHHHH	soluble
MNRSTISPVEARQQFRAGLIQPTSGWSAGFAQANLISMPQDLAYDFLLFAQRNPKPCPILEVLNAGETFGGIFGSNATEADIRTDAPQYRIYAHGELIDSPASAVDYWRDDLVSFIIGCSFTFEHPMVQAGVPVRHLEAGRNVPMYETSLACRPAGSLSGNLVVSLRMIPASQVADAVRITSRYPAVHGAPVHIGDPSLIGIDDINNPDFGDAPLSEPSDVPVFWACGVTPQAMVMSSKPPLAITHAPGHMLITDAPDLGFQVPLEHHHHHH	not soluble
MNSENSFSSSEHITVLLHEAVNGLALKENGIYIDGTFGRGGHSRFILSQLSSNGRLIAVDRDPRAIAEAHKIQDLRFQIEHNSFSHIPEICDKLNLVGKIDGILLDLGVSSPQLDEAERGFSFMKDGPLDMRMDTTQGLSAEEWLKQVSIEDLTWVLKTFGEERFAKRIATAIVDFNKSAVKNGTEFLSRTSQLAELISQAVPFKDKHKHPATRSFQAIRIFINSELDELESLLNSALDMLAPEGRLSIISFHSLEDRMVKHFMKKQSKGEDIPKGLPLREDQIQRNQKLRIIGKAIQPSDAEIQANPRSRSAILRVAERILEHHHHHH	soluble
MNSKSRITAIGTHVPNQILSNNDLEKMIDTNDEWIVQRTGMKERRIASEDEYSSNLAIKAVENLCTTYKKNLEDVDCIIVATTTADYVFPSVACQIQQYFNIPHTMAFDLNATCAGFTYGLHVGNSLITSGSHKKVLVVATETLSKVTDYTDRTTCILFGDGAGAILLERDENKPSFIAYHMGTNGHGGIHLYRTNLSTTMNDTPLQTNEKIVQNGREVYKWATRTVPVGIKELLHTANMKMDDIDWFIPHSANLRMIESICEKSQIPIHKTLTSVEYMGNTSSVSIPLALDLARKKGKLNNGDTLLLYGFGGGLTHLGLIVEWDLS	not soluble
MNSNYKRYKMLVFDLDGTLLNNNHEIAFLTLEVLLALKEDFKIIIATGRRLSEVKNIRSQLKEISINENYLVTANGAEVFLQENLIFRYAMNYDLAKEILKINTDNVDVNLYTFDTWYSNADVKSPIMKHFIKDLGLNVIIGDLTKLNVDSVSKIVYYCDDLAILNKLDTEIKSKDFQDTRVFFSSKDLLEVTNINANKYNAIKNIAFLESIPLCDVLAFGDNNNDYEMLKNLGKGVLMKNANEFLKINLAKNEITRFSNNEDGVARFLIDFFKLNIKY	not soluble
MNSSSASIPRTAHAAVPTAHASRYLQQLCKHWAHKFEAEFDPIQARIALPLGEARLTARPDALLIDLTATDAANMTTFQQVVISHIERFAFREELRFVWG	not soluble
MNTENPIEKPFRKTGDPVDLTSESPLHPRRKSRRIMVGPVPVGGGAPISVQSMTNTLTANVPATLQQIAELTAAGCDIVRVAVPSQDDADALPEICRKSPIPVIADIHFQSKYVFQAIDAGCAAVRVNPGNIRKFDEVGPDICKAATDAGISLRIGVNAGSLDKELYAKYGGPTPEALVASALKEAHMFEDVGFHDFKISVKHHDVITMVETYRLLASKGDWPLHLGVTEAGPAWQGTIKSCLAFGALLAEGIGDTIRVSLSAPPAEEVKVGCKLLEYMGLRPRKFDIISCPSCGRAQVDVIQLASAVTEGLKDVTAPIRVAVMGCIVNGPGEAREADLGVASGNGKGQIFIKGKVIKTVPEDQIVDTLLTIANDIAAQMEADGQVPVNSTGPVVVPIQHPGHLEHHHHHH	not soluble
MNTFGTRLKFTSFGESHGVAVGCIIDGMPAGVKFDEEFLQNELDKRKGGSKFATPRKESDKAQVLSGVFEGYTTGHPIAIVVFNENAHSKDYDNLKDLFRPAHADFTYFYKYGIRDHRGGGRSSARESVARVAGGAVAAMLLREFDICVQSGVFGVGTFVSNLKEEEFDFEFAKKSEIFCLDPKLESDFKNEILNARNSKDSVGAAVFTKVSGMLIGLGEVLYDKLDSKLAHALMGINAVKAVEIGEGINASKMRGSCNNDALKDGKFLSNHSGGILGGISNGENLILKTYFKPTPSIFAKQESIDKFGNNLKFELKGRHDPCVGVRGSVVASAMVRLVLADCLLLNASANLNNLKNAYGLKLEHHHHHH	soluble
MNTLLSLMNSIEQEARTIYDSYDAKKKALADKKEEELKQLFLEYEQETQLLLEAKREVFFEANRQEQKASKKRLATQQLALHAILEEHKLTVVRELVDKVVETYGH	not soluble
MNTLVLPKTQHLVVFQEVIRSGSIGSAAKSLGLTQPAVSKIISDVEAYFGVELIVRKNTGVTLTEAGQVLLSWSESITREMKNMINEMNSMTCNTVVDVSFGFPSLIGFTFMSDMIHKFKEVFPKAQVSMYEAQLSSFLPALRDGRLDFAIGTLSNEMQLQDLHVEPLFESEFVLVASKSRTCTGTITLESLKDEQWVLPQTNMGYYSELLTTLQRNGISIENIVKTDSVVTIYNLVLNADFLTVIPCDMTTPFGSNQFITIPIQDTLPVARYAAVWSKNYRIKKAASVLVELAKQYSSYNGCRRRQLIEIE	soluble
MNTNERIVPLLPLRGVLVYPTMVLHLDVGRDKSIQALEQAAMDENIIFLAMQKEMNIDDPKEDDIYSVGTVAKVKQMLKLPNGTLRVLVEGLHRAEVVEFIEEENVVQVSIKTVTEEVEADLEEKALMRTLLEHFEQYIKVSKKVSNETFATVADVEEPGRLVDLIASHLPIKTKQKQEILEIISVKERLHTLISIIQDEQELLSLEKKIGQKVKRSMERTQKEYFLREQMKAIQTELGDKEGKGGEVEELREKIEQSGMPEETMKAALKELDRYEKLPASSAESGVIRNYMDWLLALPWTDATEDMIDLAHSEEILNKDHYGLEKVKERVLEYLAVQKLTNSLKGPILCLVGPPGVGKTSLARSIATSLNRNFVRVSLGGVRDESEIRGHRRTYVGAMPGRIIQGMKKAKSVNPVFLLDEIDKMSNDFRGDPSAALLEVLDPEQNHNFSDHYIEEPYDLSKVMFVATANTLSSIPGPLLDRMEIISIAGYTELEKVHIAREHLLPKQLQEHGLRKGNLQVRDEALLEIIRYYTREAGVRTLERQIAKVCRKVAKIIVTAERKRIVVTEKNVVDLLGKHIFRYGQAEKTDQVGMATGLAYTAAGGDTLAIEVSVAPGKGKLILTGKLGDVMKESAQAAFSYIRSRAEELQIDPNFHEKNDIHIHVPEGAVPKDGPSAGITMATALISALTGIPVSKEVGMTGEITLRGRVLPIGGLKEKTLSAHRAGLTKIILPAENEKDLDDIPESVKENLTFVLASHLDEVLEHALVGVKQ	not soluble
MNTPFDFPEGAGRLVYVRPVPVAELPEDVQSMARGLDHIYALHGADGERLALVRDRHLAFVLARQNDLAPVNVH	not soluble
MNTPRIPIASHQAVMRCLRDKLQQANLTLQTDYTEPAVSYQQRGATAGTAWLQHWEIRLNPVLLQENQQTFIDEVVPHELAHLLVYARFGRVAPHGKEWRWMMENVLHVPAKRTHRFAVQSVQGKTFTYLCDCQRHELTIRRHNRVLRGETEYRCRRCGKTLRHDVKSSILEHHHHHH	soluble
MNTQSLMSSTHTIAASDPHIQVMGRTHINDDASLTFGYPGVSLSTIVAGSRLTAEMQSSNGNSWIDVIIDNHPPTSIKLDAQQQTVELFHFPNSGEHRVEIIHRSENWHGQVTLKQLTLTGTQFLPAPVLPQRKILVLGDSVTCGEAIDRVAGEDKNTRWWNARESYGMLTAKALDAQVQLVCWGGRGLIRSWNGKTDDANLPDFYQFTLGDTGQAPQWDHHRYQPDLIISAIGTNDFSPGIPDRATYINTYTRFVRTLLDNHPQATIVLTEGAILNGDKKAALVSYIGETRQQLHSNRVFYASSSHHPGDNSDAHPTKDQHAAMARELTPQLRQIMDWLEHHHHHH	soluble
MNTSTSAFDFGSSTASSAATSTTSSQPDANDHLSRLAAMTQGVGKEDPETSSTPSTEASLYPGISAAYMQSYGWPQNYNYFGQPLGPATFPGWPQCYPNTAWPNYGELFASSKKGRQTYQRYQTSVLEAKFQQSSYVSKKQREELRLQTQLTDRQIKIWFQNRRMKAKKEKQRVDDHTEHTPLLPANPPKGMGMDMDDEKKWQMAHWPPAAAHNPYQYPLCPP	soluble
MNTTGETTQPFYSHCDMNDPLCRAERLRTQFDYYRWHSLQPDDNDDVDTYTTDIATRIGKTQRYVCDHLDAIYYLTQLPQLHTVYQQLWHLDDTRLIAITRIISALPTTYYDAIDTHLTRWLTPTQPAQTIPSTRAITRFLRKTITHLGFHLDNTRKPEQYVYIYDAGHGLAGIDALIHAGVAEMFETTLRSIKKTHSCDDSTALQLLLEDKTSVVINVYDTGTGITYTPQGTALPQVPEHLVIRVLGDADVAVSTGYRFTEAMRRFIQGRDGVCRFPGCGVPAQWCDIDHVEEYDLGGVTGAVNAQCLCRHHHNVKTSRRVDCEIGAGGVVTWQIGDRRVVTTPEGVLAGQTFRQRREKKIKKAA	not soluble
MNTVIDFSAGVPPAVEVKAAGHIGVMRYISPPRLSWMTAKPATRPQIDRCRSAGVDVGFVWQYGGADNPDTMRGRTGGHADATSAQAKLIELGCPHHPVFFAVDFDISLDQWNATAVHYFKAACEVLGRDRVGIYGHSRVISWAVEDQVIADLGGGKHLAWQTPAWSMGERATEAVLYQGAANVKGPAGINIDVNEVLHHEWGQHPVGETRLEKSQEMELAMKPNPNHRGDPLFLPDVLKAFGVKVQEWDGWRDRGHGDFTVIQGVFAHHTGTDKDIPGYIADHPELGLCSQIHLNRDGTAVIVGAGIAYHAGRGSYPGWPTDNANQVAIGIEAASSGTSPWPPAQLDAYYRTCAAILWYLGKPATPQTLLGHKEYSGAAQGKWDPGGIDMNDFRRNVQHYIDNPPFLAADAAHITKEEDPMIQSLINPAKKFAQSTLISIVDATCWQILVLAKAIAKKQGLDPDQILADAITADREGK	not soluble
MNVLFLSISLGSGHIRAAEALQKFVVQKYPKSKTLIVDTFKYINPLIHTVVVDGYLNIVKYVPEIYGGLYRMSEHIKNIDRMSRGFSNLLTPKIHRLIQSFKPSIIVCTHPFPLQMIAHLKKHYNLDVPSIAIVTDFVNHPFWFQNNIEAYIVAHDYIKRDMIECGISEDRIFTYGLPVAPEFLKSIPKEQARKELSLENTLTVLLMGGSLGIGDIENTFKSFAKCKRDIQIIAVAGKNTALKKRLDSLAASFPMPVKIFGYTDSIPMLMDASDFIVTKPGAMTISEALVKRLPALIISPIPGQEERNEQFLVNSGTAVRIYKNTKIDSVLCQVYDNKLRYKQMKEIAGNLANPDSGRNILSLIEKLVNDNEKGLFKYSFNAF	soluble
MNVNRLLIVGAGAFGREVHAWLLDWVKLNPGWVIAGFINDGPGSIARFDHYPAVVSSVEGYEPGPEDYLVCAIAKPADKRLVVEKLLGKGARFFTLIHPSVIMGENVVIGQGAVICPSTVLSVDLRIGAFVTLNIGCLVGHDADIGDFSTLSGHCDITGGVVLEEEVFMGTHASVLPNVKVGKQAVVGAGSVAIRNVAAGITVFGVPAKRISGLEHHHHHH	not soluble
MNVRNGKASTLRTNDVEPIKDSFSILIIGVDTSTTRASNGNPRSDSLILATFNVKDARVEMTSIPRDSYVHIEDSAKEINKYTKINAAHAYGGPELTMKTVEEEFKIPIDYYVRFDFDAFLKIIDALDGIDVDVPVNFTEQDSKDNQNAITLKKGPQHLNAEQALALARTRHIDSDIERGKRQQLIIKSIVSEATSVSSVSKYSDIIEVVGDNMKTNLTFNQMLSIAKFGMSNKIDIKSLNLKGDSNPMNGIYYYKLNESSVQSISNEFASELGIKQPFPGAAAYSDESSTASNLEHHHHHH	soluble
